Measured values from article PMC10397247.
Blank lines part the entries; values can stand above or below the binder they belong to.

Experiments:
P4SC1 [1] = target: T1, P4SC1; experiment: two-hybrid library CCNG1;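 also: natural log of median RNA to DNA barcode read ratio; higher means stronger binding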
T1 chain: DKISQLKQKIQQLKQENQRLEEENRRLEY

P4SC1 [2] = target: T1, P4SC1; experiment: two-hybrid library CCmax; conditions: mean of both orientations;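 also: natural log of median RNA to DNA barcode read ratio; higher means stronger binding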
Core_IINN-es_KKKE = target: T2, Core_IINN-es_KKKE; experiment: two-hybrid library CCmax; conditions: mean of both orientations;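 also: natural log of median RNA to DNA barcode read ratio; higher means stronger binding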
T2 chain: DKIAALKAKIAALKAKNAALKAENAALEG

4H1110-AA = target: T3, 4H1110-AA; experiment: two-hybrid library CCmax;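 also: natural log of median RNA to DNA barcode read ratio; higher means stronger binding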
T3 chain: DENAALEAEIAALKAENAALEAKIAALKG

4H1136-AA = target: T4, 4H1136-AA; experiment: two-hybrid library CCmax; conditions: mean of both orientations;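 also: natural log of median RNA to DNA barcode read ratio; higher means stronger binding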
T4 chain: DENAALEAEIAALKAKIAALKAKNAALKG

4H1257-AA = target: T5, 4H1257-AA; experiment: two-hybrid library CCmax; conditions: mean of both orientations;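 also: natural log of median RNA to DNA barcode read ratio; higher means stronger binding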
T5 chain: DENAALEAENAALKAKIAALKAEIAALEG

4H140-AA = target: T6, 4H140-AA; experiment: two-hybrid library CCmax; conditions: mean of both orientations
T6 chain: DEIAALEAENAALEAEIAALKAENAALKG

4H1802-AA = target: T7, 4H1802-AA; experiment: two-hybrid library CCmax; conditions: mean of both orientations
T7 chain: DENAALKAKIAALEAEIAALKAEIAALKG

4H2600-AA = target: T8, 4H2600-AA; experiment: two-hybrid library CCmax; conditions: mean of both orientations
T8 chain: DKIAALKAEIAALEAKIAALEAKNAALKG

4H2721-AA = target: T9, 4H2721-AA; experiment: two-hybrid library CCmax; conditions: mean of both orientations
T9 chain: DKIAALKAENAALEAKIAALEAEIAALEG

4H2750-AA = target: T10, 4H2750-AA; experiment: two-hybrid library CCmax; conditions: mean of both orientations
T10 chain: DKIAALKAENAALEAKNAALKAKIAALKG

4H2898-AA = target: T11, 4H2898-AA; experiment: two-hybrid library CCmax; conditions: mean of both orientations
T11 chain: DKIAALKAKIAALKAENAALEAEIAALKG

4H3020-AA = target: T12, 4H3020-AA; experiment: two-hybrid library CCmax; conditions: mean of both orientations
T12 chain: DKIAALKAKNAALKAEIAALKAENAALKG

4H3365-AA = target: T13, 4H3365-AA; experiment: two-hybrid library CCmax; conditions: mean of both orientations
T13 chain: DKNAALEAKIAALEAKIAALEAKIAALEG

4H355-AA = target: T14, 4H355-AA; experiment: two-hybrid library CCmax; conditions: mean of both orientations
T14 chain: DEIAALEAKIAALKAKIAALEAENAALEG

4H3651-AA = target: T15, 4H3651-AA; experiment: two-hybrid library CCmax; conditions: mean of both orientations
T15 chain: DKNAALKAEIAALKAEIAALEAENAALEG

4H3705-AA = target: T16, 4H3705-AA; experiment: two-hybrid library CCmax; conditions: mean of both orientations
T16 chain: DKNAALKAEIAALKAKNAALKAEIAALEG

4H3782-AA = target: T17, 4H3782-AA; experiment: two-hybrid library CCmax; conditions: mean of both orientations
T17 chain: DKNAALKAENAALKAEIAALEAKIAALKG

4H465-AA = target: T18, 4H465-AA; experiment: two-hybrid library CCmax; conditions: mean of both orientations
T18 chain: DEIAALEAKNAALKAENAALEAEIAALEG

4H486-AA = target: T19, 4H486-AA; experiment: two-hybrid library CCmax; conditions: mean of both orientations
T19 chain: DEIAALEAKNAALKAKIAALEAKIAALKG

4H535-AA = target: T20, 4H535-AA; experiment: two-hybrid library CCmax; conditions: mean of both orientations
T20 chain: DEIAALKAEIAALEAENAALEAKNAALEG

4H58-AA = target: T21, 4H58-AA; experiment: two-hybrid library CCmax; conditions: mean of both orientations
T21 chain: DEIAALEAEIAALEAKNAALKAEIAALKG

4H895-AA = target: T22, 4H895-AA; experiment: two-hybrid library CCmax; conditions: mean of both orientations
T22 chain: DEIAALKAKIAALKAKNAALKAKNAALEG

4H_APH = target: T23, 4H_APH; experiment: two-hybrid library CCmax; conditions: mean of both orientations
T23 chain: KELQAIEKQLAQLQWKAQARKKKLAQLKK

4H_BCR = target: T24, 4H_BCR; experiment: two-hybrid library CCmax; conditions: mean of both orientations
T24 chain: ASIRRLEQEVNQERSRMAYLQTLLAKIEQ

4H_GCN4 = experiment: two-hybrid library CCmax
4H_GCN4, sequence (chain, as listed by the source): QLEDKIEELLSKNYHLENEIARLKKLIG

GCN2_T = experiment: two-hybrid library CCmax
Core_NNNN-es_KKEE = target: T25, Core_NNNN-es_KKEE; experiment: two-hybrid library CCmax; conditions: mean of both orientations
T25 chain: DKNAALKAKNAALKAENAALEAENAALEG

interaction score (P4SC1 [1]): 2.22
interaction score (P4SC1 [2]): 1.43
Binder: DEIQQLEEEISQLEYKNYALKAKNEELKR [P3SC1]

interaction score (Core_IINN-es_KKKE): 2.03
Binder: DEIAALEAEIAALEAENAALEAKNAALKG [Core_IINN-es_EEEK]

interaction score (4H1110-AA): 0.405
interaction score (4H1136-AA): -1.36
interaction score (4H1257-AA): -0.798
interaction score (4H140-AA): -1.14
interaction score (4H1802-AA): -1.32
interaction score (4H2600-AA): -1.01
interaction score (4H2721-AA): -0.718
interaction score (4H2750-AA): -0.176
interaction score (4H2898-AA): 1.96
interaction score (4H3020-AA): 1.51
interaction score (4H3365-AA): -1.2
interaction score (4H355-AA): -0.0666
interaction score (4H3651-AA): -1.2
interaction score (4H3705-AA): 2.63
interaction score (4H3782-AA): -0.707
interaction score (4H465-AA): -1.11
interaction score (4H486-AA): 1.93
interaction score (4H535-AA): -1.39
interaction score (4H58-AA): 1.28
interaction score (4H895-AA): 0.133
interaction score (4H_APH): -1.53
interaction score (4H_BCR): 0.0686
interaction score (4H_GCN4): -0.932
interaction score (GCN2_T): -0.988
Binder: DENAALEAEIAALKAENAALEAKIAALKG [4H1110-AA]

interaction score (Core_NNNN-es_KKEE): 0.234
Binder: DENAALEAENAALEAKNAALKAKNAALKG [Core_NNNN-es_EEKK]
